Measurements: patent publication US12180255B2, “Compositions and methods for derepressing RE1 silencing transcription factor target genes” (Alcamena Stem Cell Therapeutics, LLC, priority 2019, dated 2024)
[ ]: non-standard residue; d: D form. ξ: configuration not given here. ξGly(dodecyl) = CCCCCCCCCCCCC(N)C(=O)O

Biological target: T1, CTDSP1 (Homo sapiens, UniProt Q9GZU7)
T1 construct: GSGS linker + His6 (C)
T1 sequence (Q9GZU7 with tags, fused parts or gaps): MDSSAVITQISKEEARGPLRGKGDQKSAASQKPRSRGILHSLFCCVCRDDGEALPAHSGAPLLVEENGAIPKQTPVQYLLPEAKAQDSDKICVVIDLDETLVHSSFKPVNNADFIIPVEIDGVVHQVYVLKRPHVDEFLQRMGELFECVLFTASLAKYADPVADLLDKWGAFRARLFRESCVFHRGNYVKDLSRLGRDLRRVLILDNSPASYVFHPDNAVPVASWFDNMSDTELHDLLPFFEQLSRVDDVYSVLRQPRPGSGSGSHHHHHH
Assay: In vitro CTDSP1 phosphatase activity on phosphorylated REST peptide
Assay type: biochemical
Settings: 1 μM peptide-GST fusion; relative to GST control; substrate TEDpSPPpSPPLPKEN
Experimental: FIG. 25. In vitro CTDSP1 phosphatase activity (relative to GST control) on the REST peptide (TEDpSPPp[…] (SEQ ID NO: 329)) as a substrate after exposure to 1 μM of RPP (SEQ ID NO: 1) or one of its variants (Table 3).
FIG. 26. […] N=5, error bars are standard deviation.
Results: FIG. 25—The top 51 most abundant RPP variants identified in the RNA display/protein evolution screen are listed in-Table 3 in the order of most (V1) to least (V51) abundant peptides. The primers used to make these peptides are listed in-Table 5. A phosphatase activity screen (Table 6, FIG. 25) was used to assess the ability of the top 51 RPPV to inhibit CTDSP1 phosphatase activity at amino acids 861 and 864 on the endogenous phosphorylated REST peptide (TEDpSPPp[…] (SEQ ID NO: 329)).
The phosphorylated REST peptide (TEDpSPPp[…] (SEQ ID NO: 329)) was synthesized by GeneScript. Phosphatase reactions were performed with 10 mM Tris pH 8, 10 mM MgCl2, 100 nM CTDSP1, 0.5 μM phosphate sensor (Thermo Fischer), 50 μM of REST peptide and various concentrations of peptide-GST fusions at room temperature for 10 min. All assays were performed in 96-well pates (Corning P/N 3686) rinsed with water 10 times. Fluorescence was measured by BioTek Synergy HTX using kinetic read with excitation at 420/27 nm and emission at 485/20 nm.

How did the “Relative Phosphatase activity” value turn out when MCTEDLQQPERSQPMESC [v40] was run?
The value was 0.29.

How did the “Relative Phosphatase activity” value turn out when MCAEDLQPPPLLEAHCGSDSGRKKRRQC [v43] was run?
The value was 0.97.

How did the “Relative Phosphatase activity” value turn out when MCTEAPAPPEPALPKKKKKKNC [v26] was run?
The value was 0.46.

How did the “Relative Phosphatase activity” value turn out when MCTEAPAPPEPALPKKKKKNC [v27] was run?
Its value is 0.19.

How did the “Relative Phosphatase activity” value turn out when MCTKHLEPPGPPLPQENC [v17] was run?
Its value is 0.24.

For MCTGDLQPPESRQPQVNC [v21], which “Relative Phosphatase activity” value is on record?
The value was 0.26.

How did the “Relative Phosphatase activity” value turn out when MCTADLQPPEASLPQQNC [v49] was run?
Its value is 0.58.

With MCTEDLQSPKTTMTKENC [v7] as the substance, how does the “Relative Phosphatase activity” value read?
Its value is 0.24.

With MCAGDLKPPETTMSKKNC [v39] as the substance, how does the “Relative Phosphatase activity” value read?
Its value is 0.59.

For MCTEDQERPPVTKEDC [v13], which “Relative Phosphatase activity” value is on record?
Its value is 0.20.

With MCTEAPAPPEPALPKKKKKNC [v2] as the substance, how does the “Relative Phosphatase activity” value read?
Its value is 0.66.

For MCNGDLERPEPPVAKEYC [v34], which “Relative Phosphatase activity” value is on record?
Its value is 0.74.

For MCIADPEPPEAQLPEGNC [v14], which “Relative Phosphatase activity” value is on record?
Its value is 0.54.

How did the “Relative Phosphatase activity” value turn out when MCTEDLQSPKTTMTKENC [v28] was run?
The value was 0.33.

With MCTGVQEPPEATLPKKNC [v15] as the substance, how does the “Relative Phosphatase activity” value read?
The value was 0.70.

Which “Relative Phosphatase activity” value does the source give for MCSEDPEPPKTTMTKKNC [v31] here?
The value was 0.43.

How did the “Relative Phosphatase activity” value turn out when MCSVDLQPPARLRPMVNC [v46] was run?
Its value is 0.37.

MCTGDLQPPKTTVSKKDC [v6] was tested. Which “Relative Phosphatase activity” value did it give?
The value was 0.77.

How did the “Relative Phosphatase activity” value turn out when MCTEDLEPPKATMTKKDC [v12] was run?
The value was 0.41.

MCPEDLERPPLTKEHC [v37] was tested. Which “Relative Phosphatase activity” value did it give?
Its value is 0.16.

MCTEALEPPEPPLTKENC [v47] was tested. Which “Relative Phosphatase activity” value did it give?
Its value is 0.20.

For MCTEDLQPPEPQLPEVNC [v23], which “Relative Phosphatase activity” value is on record?
Its value is 0.60.

How did the “Relative Phosphatase activity” value turn out when MCTEDQEQQEEQLPEENC [v9] was run?
Its value is 0.65.

MCTKDLAPQAPPLLKENC [v51] was tested. Which “Relative Phosphatase activity” value did it give?
Its value is 0.71.

How did the “Relative Phosphatase activity” value turn out when MCTEDLEPPERPLPREIC [v38] was run?
The value was 0.28.

Which “Relative Phosphatase activity” value does the source give for MCTAAPEPPEPQLPQANC [v44] here?
The value was 0.53.

Which “Relative Phosphatase activity” value does the source give for “MCTEVLVPRTTSGKGRLWFWLWSQKGHPSASACGS [v42]” here?
The value was 0.48.

Which “Relative Phosphatase activity” value does the source give for MCTEDMEPRKTTMTKKYC [v25] here?
Its value is 0.63.

Which “Relative Phosphatase activity” value does the source give for MCSEAQEPPESRLPQVNC [v16] here?
The value was 0.79.

For MCAGDLEQPEPPVAKKKKKNC [v33], which “Relative Phosphatase activity” value is on record?
Its value is 0.00.

How did the “Relative Phosphatase activity” value turn out when MCTEDLQPPKTTMAEKYC [v30] was run?
Its value is 0.62.

With MCTAAPEPPEPPVSKEYC [v18] as the substance, how does the “Relative Phosphatase activity” value read?
Its value is 0.43.

MCTEDLQLPKTTMTKEYC [v19] was tested. Which “Relative Phosphatase activity” value did it give?
The value was 0.76.

With MCTEAPAPPEPALPKKKKNC [v4] as the substance, how does the “Relative Phosphatase activity” value read?
Its value is 0.67.

MCSVDLQPPARLRPMVNC [v20] was tested. Which “Relative Phosphatase activity” value did it give?
The value was 0.13.

With MCTGDLQPPEAQVIEVNC [v22] as the substance, how does the “Relative Phosphatase activity” value read?
Its value is 0.59.

With MCNEALEPPPLRKEHC [v36] as the substance, how does the “Relative Phosphatase activity” value read?
Its value is 0.68.

With MCTADLEPPEPRMEKKKVDC [v5] as the substance, how does the “Relative Phosphatase activity” value read?
The value was 0.49.

With MCPGDLKQPEPPMPKEYC [v11] as the substance, how does the “Relative Phosphatase activity” value read?
Its value is 0.13.

Which “Relative Phosphatase activity” value does the source give for MCTGDLKLPEPPMSKKKKKNC [v29] here?
Its value is 0.17.

With MCTADLKPPKTTMTKQNC [v10] as the substance, how does the “Relative Phosphatase activity” value read?
The value was 0.84.

How did the “Relative Phosphatase activity” value turn out when “MCPEDLQPPEPALPEKKKKKIVVLALVVKSAVSVGVV [v41]” was run?
Its value is 0.46.

For MCTEDLKPPEASLPEENC [v32], which “Relative Phosphatase activity” value is on record?
Its value is 0.89.

Which “Relative Phosphatase activity” value does the source give for MCTEDLKPPEPPLPKENC [v35] here?
Its value is 0.07.

Same assay, conditions: 1 μM; relative to control (GST)

For MCTEDLEPPEPPLPKENC [v1], which “inhibition of phosphatase activity” value is on record?
Its value is “approximately 60%”.

With MCAGDLEQPEPPVAKKKKKNC [v33] as the substance, how does the “inhibition of phosphatase activity” value read?
The value was 100%.

Which “inhibition of phosphatase activity” value does the source give for MCTEDLKPPEPPLPKENC [v35] here?
Its value is “approximately 90%”.

System: L5 DRGs
Assay: qRT-PCR mRNA expression in ex vivo cultured L5 DRGs
Assay type: cell-based, Sprague Dawley rat
Settings: DRG; 1 μM; 48 h
Experimental: FIG. 15. […] Error bars =standard error of the mean.
L5 DRGs were dissected from adult male rats and plated in 12-well plates pre-coated with poly-D-Lysine (PDL) and laminin in a minimal volume of medium (250 ul Neurobasal™-A medium (GIBCO) supplemented with B27 (GIBCO), 50 ng/ml NGF (Sigma-Aldrich) and penicillin streptomycin) to allow attachment to the culture plate. One day after plating, DRGs were incubated with RPP (SEQ. ID NO: 12: 1 μM, 3 μM or 10 μM in culture medium, FIGS. 14 and 16; SEQ ID NOS: 13 and 14: 3 μM, FIG. 15) for 48 h. For RNA expression analysis, DRGs were lysed in 300 μl of Qiazol in a 1.5 ml tube containing Bullet Blender Pink Beads using a Bullet Blender Tissue Homogenizer (NextAdvance). Total RNA was extracted using RNeasy Midi Kit (Qiagen) according to manufacturer's instructions. Purified RNA was quantified with NanoDrop 2000 (ThermoFIsher), and reverse transcription was run using High Capacity cDNA Reverse Transcription Kit (Applied Biosystems) and 2 ng/ul RNA per reaction. For qRT-PCR, 5 ul of cDNA (corresponding to 10 ng of RNA) were mixed with to 10 ul SsoAdvanced™ Universal SYBR® Green Supermix (BioRad) and 1 ul of each primer (final primer concentration 500 nM each). Reactions were run in triplicates in a QuantStudio™ 7 Flex Real-Time PCR system (Applied Biosystems). Amplification data were analyzed using the comparative cycle threshold (ΔΔCt) method and β-actin as calibrator. Primers were as follows: β-actin: F-[…] (SEQ ID NO: 340), R-[…] (SEQ ID NO: 333); KV4.3: F-[…] (SEQ ID NO: 341), R-[…] (SEQ ID NO: 342); KV7.2 F-[…] AG (SEQ ID NO: 343), R-[…] (SEQ ID NO: 344); OPRM1: F-[…] (SEQ ID NO: 345), R-[…] (SEQ ID NO: 346).

How did the “Increase, Nav1.8 mRNA” value turn out when “SEQ ID NO: 14: RPP fused to an intracellular transport peptide and cyclized; sequence in Table 19 (cyclo([dR][dR][ξGly(dodecyl)][dR][dR][dR][dK][dP][dL][dP][dP][dE][dP][dP][dE][dL][dD][dE]); SMILES CCCCCCCCCCCCC1NC(=O)[C@@H](CCCNC(=N)N)NC(=O)[C@@H](CCCNC(=N)N)NC(=O)[C@@H](CCC(=O)O)NC(=O)[C@@H](CC(=O)O)NC(=O)[C@@H](CC(C)C)NC(=O)[C@@H](CCC(=O)O)NC(=O)[C@H]2CCCN2C(=O)[C@H]2CCCN2C(=O)[C@@H](CCC(=O)O)NC(=O)[C@H]2CCCN2C(=O)[C@H]2CCCN2C(=O)[C@@H](CC(C)C)NC(=O)[C@H]2CCCN2C(=O)[C@@H](CCCCN)NC(=O)[C@@H](CCCNC(=N)N)NC(=O)[C@@H](CCCNC(=N)N)NC(=O)[C@@H](CCCNC(=N)N)NC1=O)” was run?
The value was 13x.
